Values of other authors in publication PMC9843440.

Molecular target: IκBα (Homo sapiens) (UniProt P25963)
Sequence of UniProt P25963 (P25963 whole entry): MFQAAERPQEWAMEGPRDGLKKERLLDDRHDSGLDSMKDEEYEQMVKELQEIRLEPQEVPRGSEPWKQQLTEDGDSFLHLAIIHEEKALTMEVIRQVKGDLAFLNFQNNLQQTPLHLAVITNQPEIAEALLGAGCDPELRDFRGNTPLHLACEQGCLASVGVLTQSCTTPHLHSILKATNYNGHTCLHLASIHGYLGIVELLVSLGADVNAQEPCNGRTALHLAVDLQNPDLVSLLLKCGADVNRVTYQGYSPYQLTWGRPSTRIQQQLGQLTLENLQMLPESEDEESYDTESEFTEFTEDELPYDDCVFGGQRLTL

In the case of IKKβ (from UniProt O14920), the Kd is listed as 56 nM.
